From patent publication US20080044360A1 (COLLAGEN MEDICAL, published 2008)
Bridge positions count the residues as written; N and C are the ends. Square brackets hold non-standard residues; d marks the D form. Primed or numbered codes have the meaning given here. Ends that are not written are not given here. Tyr(3-Cl) = N[C@@H](Cc1ccc(O)c(Cl)c1)C(=O)O; Phe(4-NH2) = Nc1ccc(C[C@H](N)C(=O)O)cc1; 1,4 AMB(Gd^T) = not defined here; Gd^T = not defined here; Gd^T″ = GdDTPA-thiourea

B1: Compound ID 816 (peptide)
peptide: {Gd^T″}-GQWHCTTYFPHHYCLYG-{1,4 AMB(Gd^T)}
modifications: disulfide 5-14 (inferred); reading uncertain
B2: Compound ID 892 (peptide)
peptide: {Gd^T″}-GQWHCTTDFPHHYCL[Tyr(3-Cl)]G
modifications: disulfide 5-14 (inferred)
B3: Compound ID 801 (peptide)
peptide: {Gd^T″}-K(Gd^T″)K(Gd^T″)WHCYTYFPHHYCVYG
modifications: disulfide 5-14 (inferred); not fully specified (C-terminus)
B4: Compound ID 890 (peptide)
peptide: {Gd^T″}-GQWHCTTDFPHHYCLFG
modifications: disulfide 5-14 (inferred)
B5: Compound ID 880 (peptide)
peptide: {Gd^T″}-GQWHCTTRFPSHYCLYG
modifications: disulfide 5-14 (inferred)
B6: Compound ID 917 (peptide)
peptide: {Gd^T″}-GQWHCTTIFPHH[dY]CLYG
modifications: disulfide 5-14 (inferred); not fully specified (C-terminus)
B7: Compound ID 908 (peptide)
peptide: {Gd^T″}-GAWHCTTLFPHH[dY]CLYG
modifications: disulfide 5-14 (inferred); not fully specified (C-terminus)
B8: Compound ID 915 (peptide)
peptide: {Gd^T″}-GAWHCTTYFPHH[dY]CLYG
modifications: disulfide 5-14 (inferred); not fully specified (C-terminus)
B9: Compound ID 879 (peptide)
peptide: {Gd^T″}-GQWHCT[dT]RFPHHYCLYG
modifications: disulfide 5-14 (inferred)
B10: Compound ID 920 (peptide)
peptide: GQWHCYTLFPHHYCLYG
modifications: disulfide 5-14 (inferred); not fully specified (N-terminus)
B11: Compound ID 859 (peptide)
peptide: {Gd^T}-GQWHCTTRYPHHYCLYG
modifications: disulfide 5-14 (inferred); not fully specified (C-terminus); reading uncertain
B12: Compound ID 866 (peptide)
peptide: {Gd^T}-G[dQ]WHCTTRFPHHYCLYG
modifications: disulfide 5-14 (inferred); not fully specified (C-terminus); reading uncertain
B13: Compound ID 911 (peptide)
peptide: {Gd^T″}-GSWHCTTLFPHH[dY]CLYG
modifications: disulfide 5-14 (inferred); not fully specified (C-terminus)
B14: Compound ID 853 (peptide)
peptide: {Gd^T}-GQWHCTTAFPHHYCLYG
modifications: disulfide 5-14 (inferred); not fully specified (C-terminus); reading uncertain
B15: Compound ID 864 (peptide)
peptide: {Gd^T}-GQWHCTTRFPHH[dY]CLYG
modifications: disulfide 5-14 (inferred); not fully specified (C-terminus); reading uncertain
B16: Compound ID 877 (peptide)
peptide: {Gd^T″}-GQWHCATRFPHHYCLYG
modifications: disulfide 5-14 (inferred)
B17: Compound ID 876 (peptide)
peptide: {Gd^T″}-GQWACTTRFPHHYCLYG
modifications: disulfide 5-14 (inferred)
B18: Compound ID 910 (peptide)
peptide: {Gd^T″}-GDWHCTTLFPHH[dY]CLYG
modifications: disulfide 5-14 (inferred); not fully specified (C-terminus)
B19: Compound ID 884 (peptide)
peptide: {Gd^T″}-GQWHCTTD[Phe(4-NH2)]PHHYCLYG
modifications: disulfide 5-14 (inferred)
B20: Compound ID 899 (peptide)
peptide: {Gd^T″}-GQWHCT[dY]RFPHHYCLYG
modifications: disulfide 5-14 (inferred); not fully specified (C-terminus)
B21: Compound ID 857 (peptide)
peptide: {Gd^T}-GAWHCTTRFPHHYCLYG
modifications: disulfide 5-14 (inferred); not fully specified (C-terminus); reading uncertain
B22: Compound ID 851 (peptide)
peptide: {Gd^T}-GQWHCTTDFPHHYCLYG
modifications: disulfide 5-14 (inferred); not fully specified (C-terminus); reading uncertain
B23: Compound ID 921 (peptide)
peptide: {Gd^T″}-GQWHCTYLFPHHYCLYG
modifications: disulfide 5-14 (inferred)
B24: Compound ID 813 (peptide)
peptide: {Gd^T″}-GQWHCTTK(Gd^T″)FPHHYCLYG
modifications: disulfide 5-14 (inferred); not fully specified (C-terminus)
B25: Compound ID 815 (peptide)
peptide: {Gd^T″}-GQWHCTTRFPHHYCK(Gd^T″)YG
modifications: disulfide 5-14 (inferred); not fully specified (C-terminus)
B26: Compound ID 865 (peptide)
peptide: {Gd^T}-GQWHCTTRFPAHYCLYG
modifications: disulfide 5-14 (inferred); not fully specified (C-terminus); reading uncertain
B27: Compound ID 870 (peptide)
peptide: {Gd^T″}-GQWSCTTRFPHHYCLYG
modifications: disulfide 5-14 (inferred)
B28: Compound ID 855 (peptide)
peptide: {Gd^T}-GQWHCTTRFPHHYCAYG
modifications: disulfide 5-14 (inferred); not fully specified (C-terminus); reading uncertain

These binders were tested against T1, human collagen type I, acid soluble, extracted from placenta (Sigma C7774) (human, UniProt P02452 162-1218; P08123 80-1119) (assay: dried collagen assay).
T1 construct: tissue extract, gelled and dried in wells; also called dried human collagen; h-Collagen
T1 sequence (P02452 162-1218 limits assumed, chain 1 of 2): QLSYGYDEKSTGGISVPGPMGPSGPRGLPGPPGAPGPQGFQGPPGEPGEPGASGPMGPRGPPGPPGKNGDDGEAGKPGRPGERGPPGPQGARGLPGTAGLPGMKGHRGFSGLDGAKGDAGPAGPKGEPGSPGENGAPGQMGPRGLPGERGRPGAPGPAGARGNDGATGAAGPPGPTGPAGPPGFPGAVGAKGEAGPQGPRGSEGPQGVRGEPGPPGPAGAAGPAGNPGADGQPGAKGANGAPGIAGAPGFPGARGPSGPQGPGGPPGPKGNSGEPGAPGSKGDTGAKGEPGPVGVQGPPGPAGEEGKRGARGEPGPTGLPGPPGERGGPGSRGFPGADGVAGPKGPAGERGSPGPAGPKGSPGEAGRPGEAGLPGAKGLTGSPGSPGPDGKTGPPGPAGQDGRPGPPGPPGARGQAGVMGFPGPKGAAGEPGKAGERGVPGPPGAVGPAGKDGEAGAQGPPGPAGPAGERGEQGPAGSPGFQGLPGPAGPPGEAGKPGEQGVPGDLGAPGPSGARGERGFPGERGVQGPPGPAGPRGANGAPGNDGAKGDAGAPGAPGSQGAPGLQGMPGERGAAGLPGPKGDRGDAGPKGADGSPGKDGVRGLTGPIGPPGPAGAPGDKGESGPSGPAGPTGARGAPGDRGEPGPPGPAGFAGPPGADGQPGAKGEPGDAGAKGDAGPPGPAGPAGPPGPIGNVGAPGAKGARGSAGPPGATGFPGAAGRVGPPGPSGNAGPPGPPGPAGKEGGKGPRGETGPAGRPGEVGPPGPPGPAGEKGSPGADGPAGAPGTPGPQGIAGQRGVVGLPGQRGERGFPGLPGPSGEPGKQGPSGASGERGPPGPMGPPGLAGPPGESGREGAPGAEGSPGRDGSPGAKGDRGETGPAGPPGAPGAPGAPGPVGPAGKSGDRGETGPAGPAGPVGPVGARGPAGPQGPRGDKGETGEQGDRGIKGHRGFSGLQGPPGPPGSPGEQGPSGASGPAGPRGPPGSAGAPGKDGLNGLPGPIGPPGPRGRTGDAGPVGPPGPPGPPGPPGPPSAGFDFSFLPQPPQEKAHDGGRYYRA
T1 sequence (P08123 80-1119 limits assumed, chain 2 of 2): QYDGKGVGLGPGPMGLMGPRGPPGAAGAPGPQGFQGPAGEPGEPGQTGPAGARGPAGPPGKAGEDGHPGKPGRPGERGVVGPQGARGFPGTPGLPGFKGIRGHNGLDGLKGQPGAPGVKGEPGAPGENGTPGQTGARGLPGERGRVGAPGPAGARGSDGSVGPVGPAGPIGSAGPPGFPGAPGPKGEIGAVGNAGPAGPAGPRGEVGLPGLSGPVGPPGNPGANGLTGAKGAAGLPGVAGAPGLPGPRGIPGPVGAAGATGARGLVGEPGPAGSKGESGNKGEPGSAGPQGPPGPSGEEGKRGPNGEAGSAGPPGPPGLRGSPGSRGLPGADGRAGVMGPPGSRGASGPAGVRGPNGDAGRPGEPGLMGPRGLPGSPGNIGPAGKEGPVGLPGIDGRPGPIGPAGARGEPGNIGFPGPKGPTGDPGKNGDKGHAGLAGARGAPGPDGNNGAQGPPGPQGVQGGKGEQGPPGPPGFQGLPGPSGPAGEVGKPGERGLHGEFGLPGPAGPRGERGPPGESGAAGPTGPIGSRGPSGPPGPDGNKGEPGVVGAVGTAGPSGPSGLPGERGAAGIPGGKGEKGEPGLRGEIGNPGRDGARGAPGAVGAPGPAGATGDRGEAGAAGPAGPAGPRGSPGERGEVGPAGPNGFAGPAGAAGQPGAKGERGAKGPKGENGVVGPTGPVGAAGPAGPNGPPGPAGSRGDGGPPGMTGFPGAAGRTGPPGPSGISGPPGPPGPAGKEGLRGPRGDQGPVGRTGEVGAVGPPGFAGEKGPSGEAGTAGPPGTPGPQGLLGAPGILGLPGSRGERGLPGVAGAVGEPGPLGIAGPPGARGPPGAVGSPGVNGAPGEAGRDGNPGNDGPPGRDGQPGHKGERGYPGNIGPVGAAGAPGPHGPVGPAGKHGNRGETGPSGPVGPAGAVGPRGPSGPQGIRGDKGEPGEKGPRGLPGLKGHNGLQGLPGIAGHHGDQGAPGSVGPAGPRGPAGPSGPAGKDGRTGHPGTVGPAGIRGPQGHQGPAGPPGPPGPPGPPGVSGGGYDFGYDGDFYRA

| % bound [%] | Binder |
| --- | --- |
| 48 | B1 |
| 63 | B2 |
| 81 | B3 |
| 38 | B4 |
| 30 | B5 |
| 12 | B6 |
| 20 | B7 |
| 15 | B8 |
| 33 | B9 |
| 67 | B10 |
| 47 | B11 |
| 60 | B12 |
| 15 | B13 |
| 66 | B14 |
| 64 | B15 |
| 58 | B16 |
| 48 | B17 |
| 13 | B18 |
| 24 | B19 |
| 20 | B20 |
| 67 | B21 |
| 50 | B22 |
| 68 | B23 |
| 65 | B24 |
| 66 | B25 |
| 30 | B26 |
| 30 | B27 |
| 27 | B28 |

What follows are binders tested against T2, rat collagen, acid soluble, type I, rat tail (Upstate 08-115) (rat, UniProt P02454 152-1207; P02466 86-1125) (assay: dried collagen assay).
T2 construct: tissue extract, gelled and dried in wells; also called dried rat collagen
T2 sequence (P02454 152-1207, chain 1 of 2): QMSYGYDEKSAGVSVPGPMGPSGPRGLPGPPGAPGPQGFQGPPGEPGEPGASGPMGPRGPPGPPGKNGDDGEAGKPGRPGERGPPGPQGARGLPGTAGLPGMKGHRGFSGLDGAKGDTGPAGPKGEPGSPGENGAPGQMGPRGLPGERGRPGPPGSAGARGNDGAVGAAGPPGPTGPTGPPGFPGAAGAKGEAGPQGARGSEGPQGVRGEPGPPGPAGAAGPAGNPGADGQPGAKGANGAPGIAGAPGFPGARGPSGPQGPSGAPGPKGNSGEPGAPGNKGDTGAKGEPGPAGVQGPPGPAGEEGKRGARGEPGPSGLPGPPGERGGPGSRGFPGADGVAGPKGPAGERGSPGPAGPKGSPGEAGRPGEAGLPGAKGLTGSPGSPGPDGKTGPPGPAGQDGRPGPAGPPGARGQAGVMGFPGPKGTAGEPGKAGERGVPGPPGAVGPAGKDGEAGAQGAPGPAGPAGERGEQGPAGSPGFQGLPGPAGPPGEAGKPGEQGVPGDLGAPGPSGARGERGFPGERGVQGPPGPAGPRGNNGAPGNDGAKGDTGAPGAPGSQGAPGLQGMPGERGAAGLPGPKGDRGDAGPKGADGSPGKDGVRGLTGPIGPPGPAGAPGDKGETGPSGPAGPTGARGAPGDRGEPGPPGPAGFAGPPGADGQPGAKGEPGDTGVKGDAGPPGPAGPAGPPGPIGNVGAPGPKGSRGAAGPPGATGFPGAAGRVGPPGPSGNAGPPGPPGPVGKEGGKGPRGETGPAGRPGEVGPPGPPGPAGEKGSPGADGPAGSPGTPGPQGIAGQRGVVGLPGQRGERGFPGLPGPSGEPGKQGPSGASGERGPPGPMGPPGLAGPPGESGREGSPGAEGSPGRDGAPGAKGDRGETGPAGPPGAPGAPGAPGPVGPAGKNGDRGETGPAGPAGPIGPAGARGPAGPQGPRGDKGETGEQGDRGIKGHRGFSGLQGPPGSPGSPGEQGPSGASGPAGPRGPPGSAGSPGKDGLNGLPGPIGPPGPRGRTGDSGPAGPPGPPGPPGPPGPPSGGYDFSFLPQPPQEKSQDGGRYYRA
T2 sequence (P02466 86-1125, chain 2 of 2): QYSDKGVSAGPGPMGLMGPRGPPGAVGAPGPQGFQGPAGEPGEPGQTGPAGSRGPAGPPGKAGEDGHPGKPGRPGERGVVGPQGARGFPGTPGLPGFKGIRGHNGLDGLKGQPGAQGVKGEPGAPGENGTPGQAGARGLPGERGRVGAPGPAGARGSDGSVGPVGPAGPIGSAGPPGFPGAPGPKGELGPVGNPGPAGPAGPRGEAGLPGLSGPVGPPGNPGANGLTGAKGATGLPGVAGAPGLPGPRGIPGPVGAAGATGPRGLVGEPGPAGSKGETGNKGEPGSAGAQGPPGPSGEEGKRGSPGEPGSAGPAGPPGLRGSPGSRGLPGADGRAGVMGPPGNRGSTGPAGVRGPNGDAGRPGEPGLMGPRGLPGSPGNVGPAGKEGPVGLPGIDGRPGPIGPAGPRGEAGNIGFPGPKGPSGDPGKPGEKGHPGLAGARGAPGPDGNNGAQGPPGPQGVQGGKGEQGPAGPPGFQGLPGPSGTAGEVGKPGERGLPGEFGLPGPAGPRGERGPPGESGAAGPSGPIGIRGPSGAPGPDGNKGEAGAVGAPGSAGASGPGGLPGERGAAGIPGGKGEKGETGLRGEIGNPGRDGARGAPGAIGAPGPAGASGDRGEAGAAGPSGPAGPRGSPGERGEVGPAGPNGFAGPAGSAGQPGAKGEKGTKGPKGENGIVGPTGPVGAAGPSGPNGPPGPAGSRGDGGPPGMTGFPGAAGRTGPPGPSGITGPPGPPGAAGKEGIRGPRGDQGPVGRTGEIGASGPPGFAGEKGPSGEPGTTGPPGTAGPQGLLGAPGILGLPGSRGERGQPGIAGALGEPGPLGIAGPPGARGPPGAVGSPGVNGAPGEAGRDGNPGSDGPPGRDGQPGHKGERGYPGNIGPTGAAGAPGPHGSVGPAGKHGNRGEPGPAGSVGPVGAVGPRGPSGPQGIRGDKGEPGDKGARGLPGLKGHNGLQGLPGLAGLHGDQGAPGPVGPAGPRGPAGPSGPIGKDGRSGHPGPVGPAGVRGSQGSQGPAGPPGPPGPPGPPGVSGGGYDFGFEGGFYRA

| % bound [%] | Binder |
| --- | --- |
| 48 | B1 |
| 56 | B2 |
| 77 | B3 |
| 15 | B4 |
| 0 | B5 |
| 0 | B6 |
| 0 | B7 |
| 0 | B8 |
| 0 | B9 |
| 91 | B10 |
| 38 | B11 |
| 38 | B12 |
| 0 | B13 |
| 57 | B14 |
| 50 | B15 |
| 41 | B16 |
| 26 | B17 |
| 0 | B18 |
| 15 | B19 |
| 14 | B20 |
| 69 | B21 |
| 41 | B22 |
| 35 | B23 |
| 55 | B24 |
| 59 | B25 |
| 17 | B26 |
| 28 | B27 |
| 15 | B28 |
